Test results as given in patent publication US20220125837A1, “METHODS FOR CONTROLLED ELIMINATION OF THERAPEUTIC CELLS” (Bellicum Pharmaceuticals, Inc., priority 2014, published 2022).
Numbering of substitutions follows the chain as printed. In names and notes the source's numbering stands. Entries after “also recorded” stand apart in the source; their conditions may differ. Where a SMILES comes first, the peptide text is derived from it. The star is where a group is joined. Cbz = O=C(OCc1ccccc1)*; CH2F = FC*

B1: T317A: chimeric modified Caspase-9 polypeptide (protein)
chain: VDGFGDVGALESLRGNADLAYILSMEPCGHCLIINNVNFCRESGLRTRTGSNIDCEKLRRRFSSLHFMVEVKGDLTAKKMVLALLELARQDHGALDCCVVVILSHGCQASHLQFPGAVYGTDGCPVSVEKIVNIFNGTSCPSLGGKPKLFFIQACGGEQKDHGFEVASTSPEDESPGSNPEPDAAPFQEGLRTFDQLDAISSLPTPSDIFVSYSTFPGFVSWRDPKSGSWYVETLDDIFEQWAHSEDLQSLLLRVANAVSVKGIYKQMPGCFNFLRKKLFFKTSASRA
B2: S183A: chimeric modified Caspase-9 polypeptide (protein)
chain: B1 chain with S51A, A185T
B3: D330N: chimeric modified Caspase-9 polypeptide (protein)
chain: B1 chain with A185T, D198N
B4: D330S: chimeric modified Caspase-9 polypeptide (protein)
chain: B1 chain with A185T, D198S
B5: D330G: chimeric modified Caspase-9 polypeptide (protein)
chain: B1 chain with A185T, D198G
B6: A316G: chimeric modified Caspase-9 polypeptide (protein)
chain: B1 chain with A184G, A185T
B7: D330E: chimeric modified Caspase-9 polypeptide (protein)
chain: B1 chain with A185T, D198E
B8: D330V: chimeric modified Caspase-9 polypeptide (protein)
chain: B1 chain with A185T, D198V
B9: S196D: chimeric modified Caspase-9 polypeptide (protein)
chain: B1 chain with S64D, A185T
B10: S144A: chimeric modified Caspase-9 polypeptide (protein)
chain: B1 chain with S12A, A185T
B11: S144D: chimeric modified Caspase-9 polypeptide (protein)
chain: B1 chain with S12D, A185T
B12: S196A: chimeric modified Caspase-9 polypeptide (protein)
chain: B1 chain with S64A, A185T
B13: F319A: chimeric modified Caspase-9 polypeptide (protein, UniProt P55211 1-416, looked up, variant F319A)
chain: MDEADRRLLRRCRLRLVEELQVDQLWDALLSRELFRPHMIEDIQRAGSGSRRDQARQLIIDLETRGSQALPLFISCLEDTGQDMLASFLRTNRQAAKLSKPTLENLTPVVLRPEIRKPEVLRPETPRPVDIGSGGFGDVGALESLRGNADLAYILSMEPCGHCLIINNVNFCRESGLRTRTGSNIDCEKLRRRFSSLHFMVEVKGDLTAKKMVLALLELAQQDHGALDCCVVVILSHGCQASHLQFPGAVYGTDGCPVSVEKIVNIFNGTSCPSLGGKPKLFFIQACGGEQKDHGFEVASTSPEDESPGSNPEPDATPAQEGLRTFDQLDAISSLPTPSDIFVSYSTFPGFVSWRDPKSGSWYVETLDDIFEQWAHSEDLQSLLLRVANAVSVKGIYKQMPGCFNFLRKKLFFKTS
modifications: fused to FKBP12 F36V dimerization domain
notes: chimeric modified Caspase-9 polypeptide
B14: F319W: chimeric modified Caspase-9 polypeptide (protein, UniProt P55211 1-416, looked up, variant F319W)
chain: B13 chain with A319W
modifications: fused to FKBP12 F36V dimerization domain
notes: as for B13

test system: F-Casp9M.I.GFPhigh-transduced T cells; assay: Annexin V/7-AAD staining of iCasp9M GFPhigh T cells after CID; type: cell-based, human; details: 100 μM for 1 hour prior to adding CID
Description: CID (AP20187; ARIAD Pharmaceuticals) at indicated concentrations was added to transfected 293T cells or transduced CTLs. Adherent and nonadherent cells were harvested and washed with annexin binding buffer (BD Pharmingen, San Jose, Calif.). Cells were stained with annexin-V and 7-amino-actinomycin D (7-AAD) for 15 minutes according to the manufacturer's instructions (BD Pharmingen). Within 1 hour after staining, cells were analyzed by flow cytometry using CellQuest software (Becton Dickinson).
A representative example of 3 separate experiments is shown.
For clinical applications therefore, versions of the expression constructs with selectable markers that allow selection for high copy number, high levels of expression, or both high copy number and high levels of expression may be desirable. […] The dose response remained unchanged for at least 4 weeks after transduction.

| Molecule | effect on CID-induced apoptosis |
| --- | --- |
| COC(=O)C[C@H](NC(=O)[C@H](C)NC(=O)[C@@H](NC(=O)OCc1ccccc1)C(C)C)C(=O)CF [zVAD-fmk] (Cbz-Val-Ala-Asp(OMe)-CH2F) | inhibited |

test system: HEK293T/16 cells; assay: Secreted alkaline phosphatase (SEAP) surrogate killing assay of iCasp9 mutants; type: cell-based, human; details: SEAP assay without AP1903; relative to wild type Caspase-9
Description: Early passage HEK293T/16 cells (ATCC, Manassas, Va.) were maintained in IMDM, GlutaMAX™ (Life Technologies, Carlsbad, Calif.) supplemented with 10% FBS, 100 U/mL penicillin, and 100 U/mL streptomycin until transfection in a humidified, 37° C., 5% CO2/95% air atmosphere. Cells in logarithmic-phase growth were transiently transfected with 800 ng to 2 μg of expression plasmid encoding iCasp9 mutants and 500 ng of an expression plasmid encoding SRα promoter driven SEAP per million cells in 15-mL conical tubes. […] GeneJammer® Transfection Reagent at a ratio of 3 μl per ug of plasmid DNA was used to transiently transfect HEK293T/16 cells in the absence of antibiotics. 100 μl or 2 mL of the transfection mixture was added to each well in 96-well or 6-well plate, respectively.
Briefly, after 65° C. heat denaturation for 45 minutes to reduce background caused by endogenous (and serum-derived) alkaline phosphatases that are sensitive to heat, 5 μl of supernatants was added to 95 μl of PBS and added to 100 μl of substrate buffer, containing 1 μl of 100 mM 4-methylumbelliferyl phosphate (4-MUP; Sigma, St. Louis, Mo.) re-suspended in 2 M diethanolamine. Hydrolysis of 4-MUP by SEAP produces a fluorescent substrate with excitation/emission (355/460 nm), which can be easily measured. […] 1000-ul of the mixture was seeded onto each well of a 96-well plate. […] For the assay, 4-methylumbelliferyl phosphate substrate was hydrolyzed by SEAP to 4-methylumbelliferon, a metabolite that can be excited with 364 nm and detected with an emission filter of 448 nm. Since SEAP is used as a marker for cell viability, reduced SEAP reading corresponds with increased iCaspase-9 activities.

| Molecule | basal activity, in words |
| --- | --- |
| B1 | lower basal activity; also recorded: reduce basal activity |
| B2 | lower basal activity |
| B3 | less basal activity than wild type Caspase-9 |
| B4 | less basal activity than wild type Caspase-9 |
| B5 | less basal activity than wild type Caspase-9 |
| B6 | lower basal activity |
| B7 | less basal activity than wild type Caspase-9 |
| B8 | less basal activity than wild type Caspase-9 |
| B9 | lower basal activity |
| B10 | lower basal activity |
| B11 | lower basal activity |
| B12 | lower basal activity |
| B13 | no effect |
| B14 | lower basal activity |

test system: PG13 packaging cells; assay: not given; type: cell-based; details: not given

| Molecule | CD19 mean fluorescence intensity of transduced PG13 cells, in words |
| --- | --- |
| B7 | enhanced CD19 mean fluorescence intensity (MFI) |

same assay, conditions: upon HAT media treatment; HT1080 cells

| Molecule | viral titers, in words |
| --- | --- |
| B7 | higher viral titers |
